From patent US6632633B1, “Process for oxidation of steroids and genetically engineered cells used therein” (Aventis Pharma, S.A., priority 1988, dated 2003) come the findings set out here.

In the data set the test system is progesterone. Kind of data set: In vivo activity of bovine P45017α in whole cells of transformed Kluyveromyces lactis (3H-labelled steroid, RP-HPLC). The data set is classed as cell-based. The conditions noted are these: expressed in K. lactis under the lactase promoter. Here is the method:
Transformation of K. lactis strain CBS 2360 was performed with pGB 17α-5 as described in Example 14 and in vivo activity was determined in the whole cells of the transformed K. lactis strain. Four independent transformants (17α-3,17α-7,17α-10 and 17α-11) were grown in rich medium (10 g of yeast extracts, 10 g of bactopeptone and 20 g of glucose/liter) for 72 hours to reach an A600 of at least 30. The cells were harvested and resuspended at 1×10^6 cells/ml (A600 =1).
Five ml of culture were incubated in the presence of ^3H-labelled progesterone (20 μM) for 24 hours at 28° C. and then were extracted with dichloromethane. […] The amount of 17α-hydroxyprogesterone was about 40% (about 23% to 58% depending on the transformant) of the substract added (see FIG. 57 corresponding to 17α-3). No androstenedione, which was the product of the C17-20-lyase activity of P45017α, was detected.
^3H-labelled 17α-hydroxyprogesterone was also incubated with the transformants under the conditions described above and after 24 hours of incubation, no androstenedione was detected.

B1: bovine P45017α: bovine cytochrome P450 steroid 17α-hydroxylase expressed in K. lactis under the lactase promoter (protein, UniProt P05185 1-509, looked up)
Steroid …: MWLLLAVFLLTLAYLFWPKTKHSGAKYPRSLPSLPLVGSLPFLPRRGQQHKNFFKLQEKYGPIYSFRLGSKTTVMIGHHQLAREVLLKKGKEFSGRPKVATLDILSDNQKGIAFADHGAHWQLHRKLALNAFALFKDGNLKLEKIINQEANVLCDFLATQHGEAIDLSEPLSLAVTNIISFICFNFSFKNEDPALKAIQNVNDGILEVLSKEVLLDIFPVLKIFPSKAMEKMKGCVQTRNELLNEILEKCQENFSSDSITNLLHILIQAKVNADNNNAGPDQDSKLLSNRHMLATIGDIFGAGVETTTSVIKWIVAYLLHHPSLKKRIQDDIDQIIGFNRTPTISDRNRLVLLEATIREVLRIRPVAPTLIPHKAVIDSSIGDLTIDKGTDVVVNLWALHHSEKEWQHPDLFMPERFLDPTGTQLISPSLSYLPFGAGPRSCVGEMLARQELFLFMSRLLQRFNLEIPDDGKLPSLEGHASLVLQIKPFKVKIEVRQAWKEAQAEGSTP
Turning to B1, the C17-20 lyase activity entry was “does not show any activity C17-20 lyase”.
